{"source": "paper PMC5830076", "target": "ARΔ423-448 (Flag-AR with residues 423 to 448 removed) (human) (UniProt P10275)", "test": "proximity ligation"}
{"substance": "Myc-RAP74-CTD (from UniProt P35269 450-517) (domain or fragment)", "values": [{"measurement": "reduction of the interaction against WT AR (PLA)", "result": 40, "unit": "%"}]}
